From patent US20240150440A1 (LUMEN BIOSCIENCE, published 2024) come the findings set out here.

First the molecules themselves.
B1: MBP-5HVZ-R5A-A1-H6 (VHH, not shown: large carriers; small tags and cut ends)
VHH: QVQLVESGGGLVQPGGSLRLSCAASGAELSYTAIHWFRQAPGKQREFVATINSGGSSYYADSVKGRFTISRDNAKNTVYLQMNSLKPEDTAVYYCTALLDSTYDYWGQGTQVTVSS
B2: MBP-5HVZ-R5A-B3-H6 (VHH, not shown: large carriers; small tags and cut ends)
VHH: QVQLVESGGGLVQPGGSLRLSCAASGQLDRSNAMAWFRQAPGKGREWVASITSGASTQYADSVKGRFTISRDNAKNTVYLQMNSLKPEDTAVYYCAADRYRAIQRTQYSWGQGTQVTVSS
B3: MBP-5HVZ-R5A-D6-H6 (VHH, not shown: large carriers; small tags and cut ends)
VHH: QVQLVESGGGLVQPGGSLRLSCAASGNDWYINSAHWYRQAPGKEREFVASVSRGGSNNYRDSVKGRFTISRDNAKNTVYLQMNSLKPEDTAVYYCAALLETSSGDYTYWGQGTQVTVSS
B4: MBP-5HVZ-R2E-F4-H6 (VHH, not shown: large carriers; small tags and cut ends)
VHH: QVQLVESGGGLVQPGGSLRLSCAASGETFSSNAMHWFRQAPGKGREFVAAITSGGNDNYSDSVKGRFTISRDNAKNTVYLQMNSLKPEDTAVYYCNAPATEDTSHYPRNYWGQGTQVTVSS
B5: R5A-C5 (competition ELISA sample) (VHH)
VHH: QVQLVESGGGLVQPGGSLRLSCAASGDIFSINALHWFRQAPGKQREEVAAITSGGSTGYADSVKGRFTISRDNAKNTVYLQMNSLKPEDTAVYYCAAQQARGGLDSDYWGQGTQVTVSS
B6: MBP-R5A-A5-H6 (VHH, not shown: large carriers; small tags and cut ends)
VHH: QVQLVESGGGLVQPGGSLRLSCAASGSAFATNGLHWFRQAPGKQREFVAGITSNGSINYKDSVKGRFTISRDNAKNTVYLQMNSLKPEDTAVYYCTALLMSYGGGEEYDYWGQGTQVTVSS
B7: MBP-5HVZ-R5A-A5-H6 (VHH, not shown: large carriers; small tags and cut ends)
VHH: B6 VHH
B8: MBP-5HVZ-R5A-D4-H6 (VHH, not shown: large carriers; small tags and cut ends)
VHH: QVQLVESGGGLVQPGGSLRLSCAASGSAMMINRTHWFRQAPGKEREGVAGITWQGSTYYADSVKGRFTISRDNAKNTVYLQMNSLKPEDTAVYYCNAVAPVHENENYWGQGTQVTVSS
B9: PP1110 MBP-5HVZ-PAPA-RN-26-H6 (VHH)
VHH: QVQLVESGGGLVQPGGSLRLSCAASGSISSINSMHWYRQAPGKEREWVAAVSSYGSDYYADSVKGRFTISRDNAKNTVYLQMNSLKPEDTAVYYCAARTVTGFTYGDYWGQGTQVTVSS
notes: Form: Dimer
B10: PP1099 MBP-5HVZ-PAPA-RN-12-H6 (VHH)
VHH: QVQLVESGGGLVQPGGSLRLSCAASGSSFEGNAVHWFRQAPGKNREFVATITTSTSYYYADSVKGRFTISRDNAKNTVYLQMNSLKPEDTAVYYCAARLKDRGPQSEYDYWGQGTQVTVSS
notes: Form: Dimer
B11: PP1154 MBP-5HVZ-PAPA-R5d-G1-H6 (VHH)
VHH: QVQLVESGGGLVQPGGSLRLSCAASGSIFGINDVHWFRQAPGKEREFVATITNGLSARYKDSVKGRFTISRDNAKNTVYLQMNSLKPEDTAVYYCAAQVYITTYELYDYWGQGTQVTVSS
notes: Form: Dimer
B12: PP1115 MBP-5HVZ-PAPA-RN-31-H6 (VHH)
VHH: QVQLVESGGGLVQPGGSLRLSCAASGSTGSDYAMHWFRQAPGKDREWVAGISSYGSDSYGDSVKGRFTISRDNAKNTVYLQMNSLKPEDTAVYYCAALQASAGAGYYYDYWGQGTQVTVSS
notes: Form: Dimer
B13: PP1104 MBP-5HVZ-PAPA-RN-19-H6 (VHH)
VHH: QVQLVESGGGLVQPGGSLRLSCAASGIDDSIGAMHWFRQAPGKGREFVAALSGTGTTSYADSVKGRFTISRDNAKNTVYLQMNSLKPEDTAVYYCAAAFPAGGDYWGQGTQVTVSS
notes: Form: Dimer
B14: PP1102 MBP-5HVZ-PAPA-RN-17-H6 (VHH)
VHH: QVQLVESGGGLVQPGGSLRLSCAASGSMYSRAVMHWFRQAPGKEREGVASIGRTGDSYYADSVKGRFTISRDNAKNTVYLQMNSLKPEDTAVYYCAADNLDVVYGNRYWGQGTQVTVSS
notes: Form: Dimer
B15: PP1153 MBP-5HVZ-PAPA-R5d-D4-H6 (VHH)
VHH: QVQLVESGGGLVQPGGSLRLSCAASGSDFTINAMHWFRQAPGKQREFVATITSTSSTAYRDSVKGRFTISRDNAKNTVYLQMNSLKPEDTAVYYCAAFAVRDADTAGWTARDYWGQGTQVTVSS
notes: Form: Dimer
B16: PP1109 MBP-5HVZ-PAPA-RN-25-H6 (VHH)
VHH: QVQLVESGGGLVQPGGSLRLSCAASGEDYSYNAAHWFRQAPGKEREWVAAINSGGGTYYADSVKGRFTISRDNAKNTVYLQMNSLKPEDTAVYYCAYLGALDRDGYDAWGQGTQVTVSS
notes: Form: Dimer
B17: PP1112 MBP-5HVZ-PAPA-RN-28-H6 (VHH)
VHH: QVQLVESGGGLVQPGGSLRLSCAASGSQFSHNLMSWFRQAPGKQREFVAAITSFGSTGYADSVKGRFTISRDNAKNTVYLQMNSLKPEDTAVYYCAALSSEDTSHYPRNYWGQGTQVTVSS
notes: Form: Dimer
B18: PP1114 MBP-5HVZ-PAPA-RN-30-H6 (VHH)
VHH: QVQLVESGGGLVQPGGSLRLSCAASGIPASYLNMHWFRQAPGKQREWVAGAGGTNSNYYQDSVKGRFTISRDNAKNTVYLQMNSLKPEDTAVYYCAALDGAESYDYVYPVWGQGTQVTVSS
notes: Form: Dimer
B19: PP1107 MBP-5HVZ-PAPA-RN-22-H6 (VHH)
VHH: QVQLVESGGGLVQPGGSLRLSCAASGSISEINLLHWFRQAPGKQREWVATMTSGGSTDYADSVKGRFTISRDNAKNTVYLQMNSLKPEDTAVYYCAADEFTKYGHGRYWGQGTQVTVSS
notes: Form: Dimer
B20: PP1113 MBP-5HVZ-PAPA-RN-29-H6 (VHH)
VHH: QVQLVESGGGLVQPGGSLRLSCAASGYILSENLTAWFRQAPGKAREVVATVTSGDYTNYDDSVKGRFTISRDNAKNTVYLQMNSLKPEDTAVYYCAAGTSDWEVKWSHWGQGTQVTVSS
notes: Form: Dimer
B21: PP912 MBP-5HVZ-S2b-G8-H6 (VHH)
VHH: QVQLVESGGGLVQPGGSLRLSCAASGSIQSYEAMHWFRQAPGKAREWVAVITWGDSTQYGDSVKGRFTISRDNAKNTVYLQMNSLKPEDTAVYYCAADVRQGYSSWGQGTQVTVSS
notes: Form: Dimer
B22: PP1103 MBP-5HVZ-PAPA-RN-18-H6 (VHH)
VHH: QVQLVESGGGLVQPGGSLRLSCAASGYYFQIVAMHWYRQAPGKEREGVAGITSTGSTYYGDSVKGRFTISRDNAKNTVYLQMNSLKPEDTAVYYCNAVSTDAQGAAEYWGQGTQVTVSS
notes: Form: Dimer
B23: PP1101 MBP-5HVZ-PAPA-RN-16-H6 (VHH)
VHH: QVQLVESGGGLVQPGGSLRLSCAASGADFSSNAMHWFRQAPGKAREFVASIDSDKSGYYADSVKGRFTISRDNAKNTVYLQMNSLKPEDTAVYYCNAYSGTDNYGYDYWGQGTQVTVSS
notes: Form: Dimer
B24: PP1106 MBP-5HVZ-PAPA-RN-21-H6 (VHH)
VHH: QVQLVESGGGLVQPGGSLRLSCAASGLQTSDNAMHWFRQAPGKNRELVAGLTSGTSRNYGDSVKGRFTISRDNAKNTVYLQMNSLKPEDTAVYYCAAFPDVGDASSIGFVYWGQGTQVTVSS
notes: Form: Dimer
B25: PP1108 MBP-5HVZ-PAPA-RN-23-H6 (VHH)
VHH: QVQLVESGGGLVQPGGSLRLSCAASGGEKSISAAHWYRQAPGKEREFVAAITAASTTSYADSVKGRFTISRDNAKNTVYLQMNSLKPEDTAVYYCTAVLYDSYDYWGQGTQVTVSS
notes: Form: Dimer
B26: PP1105 MBP-5HVZ-PAPA-RN-20-H6 (VHH)
VHH: QVQLVESGGGLVQPGGSLRLSCAASGNYFEINKMHWFRQAPGKQREFVATIGSGGSTAYADSVKGRFTISRDNAKNTVYLQMNSLKPEDTAVYYCNALIYLADRRDGYYSYDYWGQGTQVTVSS
notes: Form: Dimer
B27: PP1111 MBP-5HVZ-PAPA-RN-27-H6 (VHH)
VHH: QVQLVESGGGLVQPGGSLRLSCAASGPQFSSNAVSWFRQAPGKEREWVAGITSGGSTDYADSVKGRFTISRDNAKNTVYLQMNSLKPEDTAVYYCTAPSVSDADRRTRDYWGQGTQVTVSS
notes: Form: Dimer
B28: PP930 MBP-5HVZ-R2b-D4-H6 (VHH)
VHH: QVQLVESGGGLVQPGGSLRLSCAASGSYASIASMHWFRQAPGKQREFVAGLTSGGSRIYGDSVKGRFTISRDNAKNTVYLQMNSLKPEDTAVYYCTALILHYAGMYDYWGQGTQVTVSS
notes: Form: Dimer
B29: MBP-5HVZ-R5C-E1-H6 (VHH, not shown: large carriers; small tags and cut ends)
VHH: QVQLVESGGGLVQPGGSLRLSCAASGYIFSATVMHWFRQAPGKQREGVASINSTGSSQYADSVKGRFTISRDNAKNTVYLQMNSLKPEDTAVYYCAADGADVVYGNRYWGQGTQVTVSS

For the first assay, the target named is T1, recombinant SARS-CoV-2 RBD with C-terminal AviTag (SARS-CoV-2, UniProt P0DTC2 319-541).
Assay: not given
As to B1, the 50% inhibitory concentration (IC50) is 3.4 nM and the Kd is 29 nM. Consider B2, for which the IC50 is 35.9 nM and the dissociation constant Kd is around 1200 nM.

For B3, the IC50 is 223 nM and the Kd is 35 nM. B4: the IC50 worked out at 6.3 nM and the Kd turned out to be 11.4 nM. Take B5: the half-inhibitory concentration (IC50) worked out at 1.4 nM and the Kd was 7.04 nM. Take B6: the Kd is around 920 nM. Take B7: the concentration for half-maximal inhibition (IC50) worked out at 4.4 nM and the dissociation constant Kd was 24.7 nM. Taken in the same sequence, the figures for B8 were 5.7 nM and 21.1 nM.

Another assay addresses SARS-COV-2 Wuhan Reference RBD (SARS-CoV-2, UniProt P0DTC2 319-541). The assay is described as follows: ELISA, RBD coated.
In the case of B9, it took 3.5 nM to reach a half-maximal effect (EC50).

B10 yielded an EC50 of 4.24 nM. The same measure, in the same setting: to B11 belongs 2.42 nM; to B12, 4.9 nM.

For B13, the EC50 came out at 1.21 nM.

The molecule B14 gave an EC50 of 0.97 nM. Turning to B15, the response was half-maximal at 1.23 nM (EC50). B16: a half-maximal response (EC50) required 1.06 nM.

Regarding B17, the EC50 worked out at 1.36 nM. Molecule B18 showed an EC50 of 1.14 nM. In turn, B19 displayed an EC50 of 0.27 nM. Same read-out and setting: to B20 belongs 0.34 nM; to B21, 2.33 nM. The molecule B22 showed an EC50 of 2.4 nM. Molecule B23 had an EC50 of 1.56 nM.

As to B24, the EC50 came to 2.52 nM. Still for that read-out and setting: then B25, with 2.61 nM.

B26 returned a concentration giving a half-maximal response (EC50) of 1.24 nM.

Regarding B27, the EC50 amounted to 0.33 nM. Regarding B28, it took 3.18 nM to reach a half-maximal effect (EC50).

The next assay concerns the target T1, recombinant SARS-CoV-2 RBD with ….
Assay: not given
This is another data set of the same source.
With B29, the IC50 is 4.5 nM and the Kd stood at 6.13 nM.

The target is the same in another assay. As to the kind of experiment: ELISA, competition with coated ACE2-Fc for RBD [Cont. 9].
For B9, the IC50 was found to be 156 nM. Same read-out and setting: to B12 belongs 11.6 nM; to B13, 3.5 nM; to B14, 2.4 nM. Same read-out and setting: then B16, with 29.6 nM; and B17, with 10.5 nM; and B18, with 3.4 nM. For B19, the half-maximal inhibitory concentration (IC50) came out at 3.9 nM. On the same count and under the same terms, then B20, with 4.9 nM; and B22, with 53.3 nM.

For B23, the IC50 stood at 13.9 nM. Still for that read-out and setting: to B24 belongs 9.7 nM.

In the case of B25, the half-maximal inhibitory concentration (IC50) stood at 380 nM. As to B26, the half-inhibitory concentration (IC50) is 7.2 nM. Still for that read-out and setting: to B27 belongs 9.4 nM.
